# Measured values as given in patent US20210386836.
# T1: C-Reactive protein, P02741
# T1 chain: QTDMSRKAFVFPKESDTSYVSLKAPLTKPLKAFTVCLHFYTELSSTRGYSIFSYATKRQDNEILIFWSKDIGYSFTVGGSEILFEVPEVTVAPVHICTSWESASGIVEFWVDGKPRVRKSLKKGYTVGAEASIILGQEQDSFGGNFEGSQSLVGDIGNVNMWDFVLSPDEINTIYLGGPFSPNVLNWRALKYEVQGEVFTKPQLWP
# T2: C1 inhibitor, P05155
# T2 chain: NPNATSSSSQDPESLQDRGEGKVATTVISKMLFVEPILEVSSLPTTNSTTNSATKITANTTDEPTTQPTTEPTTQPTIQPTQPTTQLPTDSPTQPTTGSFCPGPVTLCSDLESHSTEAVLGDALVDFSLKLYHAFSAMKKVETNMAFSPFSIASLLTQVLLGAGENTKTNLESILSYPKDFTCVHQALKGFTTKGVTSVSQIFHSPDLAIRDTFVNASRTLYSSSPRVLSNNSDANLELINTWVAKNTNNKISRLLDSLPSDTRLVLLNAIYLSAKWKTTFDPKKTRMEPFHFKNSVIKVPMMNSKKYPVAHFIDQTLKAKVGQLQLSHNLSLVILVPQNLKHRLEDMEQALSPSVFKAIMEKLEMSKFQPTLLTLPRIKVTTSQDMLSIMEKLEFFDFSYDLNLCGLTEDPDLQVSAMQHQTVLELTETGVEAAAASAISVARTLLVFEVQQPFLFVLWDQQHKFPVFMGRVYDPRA
# T3: C1s, P09871
# T3 chain: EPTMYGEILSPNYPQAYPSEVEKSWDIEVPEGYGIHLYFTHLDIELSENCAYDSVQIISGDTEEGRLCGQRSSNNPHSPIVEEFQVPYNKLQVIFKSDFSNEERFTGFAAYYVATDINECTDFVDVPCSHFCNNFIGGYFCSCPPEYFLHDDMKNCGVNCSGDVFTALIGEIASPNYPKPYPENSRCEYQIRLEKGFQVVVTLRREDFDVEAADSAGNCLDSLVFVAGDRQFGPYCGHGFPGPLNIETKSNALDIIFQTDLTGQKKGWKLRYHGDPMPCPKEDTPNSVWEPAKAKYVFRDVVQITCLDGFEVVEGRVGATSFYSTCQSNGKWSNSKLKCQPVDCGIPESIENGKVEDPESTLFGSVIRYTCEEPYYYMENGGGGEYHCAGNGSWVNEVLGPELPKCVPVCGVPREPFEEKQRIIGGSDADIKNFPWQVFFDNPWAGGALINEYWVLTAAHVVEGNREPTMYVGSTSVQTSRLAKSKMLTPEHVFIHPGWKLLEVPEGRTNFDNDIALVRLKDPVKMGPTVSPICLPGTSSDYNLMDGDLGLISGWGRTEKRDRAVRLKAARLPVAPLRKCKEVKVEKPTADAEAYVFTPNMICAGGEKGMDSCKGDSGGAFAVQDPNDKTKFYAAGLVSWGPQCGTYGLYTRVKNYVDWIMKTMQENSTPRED
# T4: C4-Binding protein, P04003
# T4 chain 1: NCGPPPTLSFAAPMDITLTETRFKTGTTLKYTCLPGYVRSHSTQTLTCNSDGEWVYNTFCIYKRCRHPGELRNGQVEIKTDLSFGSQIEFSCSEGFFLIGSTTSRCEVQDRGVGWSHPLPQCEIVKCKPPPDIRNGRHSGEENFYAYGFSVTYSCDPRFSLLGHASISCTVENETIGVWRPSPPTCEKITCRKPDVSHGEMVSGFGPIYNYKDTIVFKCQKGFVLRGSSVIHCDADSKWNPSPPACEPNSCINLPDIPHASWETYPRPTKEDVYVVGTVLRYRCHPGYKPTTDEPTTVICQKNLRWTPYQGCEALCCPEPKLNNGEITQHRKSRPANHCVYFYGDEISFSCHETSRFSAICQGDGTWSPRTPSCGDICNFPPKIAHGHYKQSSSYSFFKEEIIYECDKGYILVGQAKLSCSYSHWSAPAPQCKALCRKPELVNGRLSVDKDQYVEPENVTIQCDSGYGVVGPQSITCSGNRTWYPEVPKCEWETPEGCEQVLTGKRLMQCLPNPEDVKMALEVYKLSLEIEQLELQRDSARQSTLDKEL
# T4 chain 2: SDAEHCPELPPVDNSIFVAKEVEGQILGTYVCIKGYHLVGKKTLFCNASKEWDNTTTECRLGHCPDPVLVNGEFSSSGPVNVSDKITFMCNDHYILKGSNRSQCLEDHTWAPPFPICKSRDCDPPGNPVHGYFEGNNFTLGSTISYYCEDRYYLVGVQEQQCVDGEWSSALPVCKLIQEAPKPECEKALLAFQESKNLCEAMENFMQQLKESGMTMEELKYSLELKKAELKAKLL
# T5: human C5a, P01031
# T5 chain: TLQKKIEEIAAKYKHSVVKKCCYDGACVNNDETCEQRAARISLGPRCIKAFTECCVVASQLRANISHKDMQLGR
# Experiments:
# [1] = target: T1, C-Reactive protein, P02741
# C1 inhibitor, P05155 = target: T2, C1 inhibitor, P05155
# C1s, P09871 = target: T3, C1s, P09871
# [2] = target: T4, C4-Binding protein, P04003
# human C5a, P01031 = target: T5, human C5a, P01031
# Chain of Properidin, P27918 (P27918 28-469): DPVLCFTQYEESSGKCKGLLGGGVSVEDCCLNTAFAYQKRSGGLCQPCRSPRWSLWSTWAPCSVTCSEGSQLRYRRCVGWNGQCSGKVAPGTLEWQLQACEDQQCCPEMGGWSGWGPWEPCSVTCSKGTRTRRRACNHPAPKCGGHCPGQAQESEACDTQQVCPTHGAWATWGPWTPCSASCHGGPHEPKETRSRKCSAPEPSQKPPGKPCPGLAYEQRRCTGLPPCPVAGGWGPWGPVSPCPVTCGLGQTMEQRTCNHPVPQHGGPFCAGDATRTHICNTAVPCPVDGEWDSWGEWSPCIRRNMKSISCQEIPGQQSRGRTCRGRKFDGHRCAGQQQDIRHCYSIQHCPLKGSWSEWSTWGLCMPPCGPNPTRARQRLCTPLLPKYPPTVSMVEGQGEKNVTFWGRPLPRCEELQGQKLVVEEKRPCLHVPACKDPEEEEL
protein,measurement,setting,value
"PrtI(ProB) (protein, not fully specified; X: residue not identified in the source) AIGETSVQNVKVSVAKNESDSQKFNNSQNLEQKTPQAAAANQNGSQVQNDHTETQLQNQQTTQSQVTQAHTEENNASSIPEPANQADHVKGNVQSAWDQGYKGQNTVVAVIDSGADTSHKDFQTMPSNPKLKQEDVQSKIDQQGYGKYVNEKFPYVYNYADRDNDYIKSDDNNQXNDSPHGQHVSGIIAADGHPEGDQQYVVGVAPEAQLMQLRVFGQFSDEKTDDVARAIYDATNLGADVIQMSLGQGVADQQLTNIEQKAVQYAIDHGVFVSISASNNGNSASVDNPSKVTAKGYGSGSEAGNYEPLNSGTVANPGASKNALTVAAETSGTGKDSDMASFSSWGPLSDFSLKPDLSAPGYQVVSTVNDNQYQTMSGTSMAGPFAAGSAALVIQRLKQTNPELKGAELVAATKALLMNSAKVQTQNGYTTPVSPRRQGAGQIDVGAATANPVYVTAADGTSSLSLRQVDEKTTFTLTFHNLTDQEQSYSFNDLGGGYTEQRDPDSGVFHEVQLAGAHVNGVGNFTLAPKEVKDLQYTLDLQGLNKNQPVEGWLHFTNDKDKSTVVVPYLAYYGDLTSENVFDQNANEEKPDIQGNRFVNENNYPLGVTDQESLKQLVNVDSDYNWQEVAKLYESGKVAFSPNDDHQSDLIKPYAYLKQNVKDLKVEILDAKGNVVRVVSDVQGVDKSYDESGVTKDASLSVSMRDNPDAFEWDGKVYDTKTGQMVTAPDGQYTYRFVATLWNEGPNQKQTADFPVVVDTQAPSLSVKYDSATHTLSGNYEDKGAGFTDYSYVTVQVNDKVFGYKLNEGESGFDNSEKTKGHFNFTLSSDALDALSGSLNKVSVTLSDVANNTTVKTVDVPAVKDQPAVSVWNATEGVEFNKNSKDYNKENDTYTLYGSAAQDFYLNGALVQVRDGKYEVPVKTTTQDLVFSTDQAGKNVLKSFTTFTPKAFFNWQNVDGFDGNFGVNIYSVKTNDPNNAVVQAAVPLGKNVKAYAQDYFTGEVYKGQVENGVATFHVHTSINQGEDGIFKRALLTGWSEVDGPAYNDKQVTSKAGVASSNHLGVYYTTDKVNRKVYTDRADLGVDVQDEAADLSSFGPTAYPGHALADLTTRTDPNPAIHFDYLNDNDTTRFGQNAVTDGYYDSVTKKFTVTGHVDPEVKSLTVLGDSSDENAPQNQVKLGKDGKFSFSFTTENVGQRPVAYIYTDQNGQKVRGTLNVVLDTVAPTLNVDQVNGNELEVKTNNPLFKLSGVVNDNLDGYRLYVNGNNIYREFLNSGYNKLAGLNTDGTDVNPYGPHNFEESFNLNDDNNQPTTHVFTIYVVDQVGNKVEKKIAVNYDPDYVA",protein cleavage assay (SDS-PAGE),IL-1β,has activities against
same,proteolytic activity (SDS-PAGE),"C5, P01031",None of the complement proteins tested show evidence of breakdown
same,protein cleavage assay (SDS-PAGE),IL-3,has activities against
same,protein cleavage assay (SDS-PAGE),IL-8,has activities against
same,proteolytic activity (SDS-PAGE),[1],None of the complement proteins tested show evidence of breakdown
same,proteolytic activity (SDS-PAGE),"Properidin, P27918",None of the complement proteins tested show evidence of breakdown
same,proteolytic activity (SDS-PAGE),"C1 inhibitor, P05155",None of the complement proteins tested show evidence of breakdown
same,proteolytic activity (SDS-PAGE),"C1s, P09871",None of the complement proteins tested show evidence of breakdown
same,proteolytic activity (SDS-PAGE),[2],None of the complement proteins tested show evidence of breakdown
same,protein cleavage assay (SDS-PAGE),"human C5a, P01031",has activities against
PrtV(Pro-B) (protein) DTVNGSESVKTEATQASGSSVQDNATAKTTVTTNSNSSNNVSNVQTDTVKEAATSNVDSVASQNQATTAQQAKTTADTADQTVPPTTYKDHVKGNVQTAWDNGYKGQGMVVAVIDSGADTNHKDFSKAPESPAISKEDADKKISELGYGKYASEKFPFVYNYASRDNNWVKDDGPDASEHGQHVAGIIGADGQPNGNERYAVGVAPETQLMMMRVFNDQFADENTDDIAQAIYDAVKLGANVIQMSLGQGVAAANLNDVEQKAVEYATQHGVFVSISASNNGNSASVTGEEVPYKPGGADGNFEPFSSSTVANPGASRNAMTVAAENSVVGAGDDMADFSSWGPLQDFTLKPDVSAPGVSVTSTGNDNRYNTMSGTSMAGPFNAGVAALVMQRLKATTNLNGADLVQATKALIMNTAKPMTQQGYDTPVSPRRQGAGEIDAGAATESPVYVVAADGTSSVSLRKVGDSTQFALTFKNLSDKDQTYTFDDFGGGLTEVRDADTGTFHDVYLAGAHVYGNKTVTVKAGQSATYNFTLSLTGLKENQLVEGWLRFVGNDGQNQLVVPYLAYYGDMTSEDVFDKAANQEGTVYGGNYFVNEDNYPRGVADEDSLKALVNLEGNYNWQQVAKLYQDGKVAFSPNADGKSDLLKPYAFVKQNLKDLKVEVLDKSGKVVRVVADEQGLDKSYYESGVNKDVTLSVSMRNNPNTLAWDGKVYDDKAGEMVNAADGEYTYRYVATLYNDGVNKVQTADYPVVIDTTAPVLSNVKYDAATHTLSFDYKDTGSGFTDYSYAVVKVNDKTFGYKLNDGKNSKFLDAAKTSGTFKAVLGSDTLAALTAAKNALSVAVSDVADNTSTVTLLVNGNNDATTKVSVWNATNGLELDQSSPDYQAATSTYNLRGNATSDFYYNGALVQVDNSGNFVVPVSTSDTAVVFTSDAAGKNVVYKLNTATPKAVFAWQVNNTVKENFGIVLDTVVSNNKDDVVVQAAVTKGDNVEAYARDYFTGAVYKADVKDGLATFHVKVTNNSGRTVLLGWTEVVGPTFNDVQRTSANGVYLGVDTDTENPTPAPAFTSADQLGTNVVQEKADSATIGNPGDLPGHSLKDLTTRADANPDIHFDYLKDNDYNWVGAQAVKDGVYNPSTQVFTLTGKVDPNVKSLVVLGDSYNEDDPVNKVNLNSDGTFSFQFHTAPTSQRPVAYIYTKDDGSTTRGTMELILDTVLPTLSLNNVANLQLDSNGDYQVYTNNKDFSVSGEATDNLDGYRFFFNGDNDYREFHNSGVNFVAEAHQDGSTVTNPYPAYKFSKTFNLADATGETTHVYTLSVVDLTGNTVTRKFYVHY,protein cleavage assay (SDS-PAGE),IL-1β,has activities against
same,proteolytic activity (SDS-PAGE),"C5, P01031",None of the complement proteins tested show evidence of breakdown
same,protein cleavage assay (SDS-PAGE),IL-3,has activities against
same,protein cleavage assay (SDS-PAGE),IL-8,has activities against
same,proteolytic activity (SDS-PAGE),[1],None of the complement proteins tested show evidence of breakdown
same,proteolytic activity (SDS-PAGE),"Properidin, P27918",None of the complement proteins tested show evidence of breakdown
same,proteolytic activity (SDS-PAGE),"C1 inhibitor, P05155",None of the complement proteins tested show evidence of breakdown
same,proteolytic activity (SDS-PAGE),"C1s, P09871",None of the complement proteins tested show evidence of breakdown
same,proteolytic activity (SDS-PAGE),[2],None of the complement proteins tested show evidence of breakdown
same,protein cleavage assay (SDS-PAGE),"human C5a, P01031",has activities against
